Patent US20220249611A1 (Stanford University, published 2022)
HA tag and linker = not defined here

T1: human FGFR1 beta (IIIc)-Fc (R&D Systems) (human, UniProt P11362-14 22-285, limits assumed)
T1 construct: Bought reagent; also called FGFR1-Fc; Fc fusion of FGFR1; not shown: Fc domain (detected with anti-human IgG)
T1 sequence (looked up): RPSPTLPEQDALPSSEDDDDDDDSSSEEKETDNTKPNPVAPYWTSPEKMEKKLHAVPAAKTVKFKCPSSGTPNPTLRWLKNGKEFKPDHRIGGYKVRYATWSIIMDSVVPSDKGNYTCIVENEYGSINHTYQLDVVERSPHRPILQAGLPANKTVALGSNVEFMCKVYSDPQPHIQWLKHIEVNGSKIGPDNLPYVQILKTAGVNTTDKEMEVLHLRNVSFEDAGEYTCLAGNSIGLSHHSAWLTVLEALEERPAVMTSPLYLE


Key:
[1] = target: FGFRs expressed on NIH3T3 cells; test: cell-based or functional assay
[2] = target: FGFRs expressed on NIH3T3 cells; test: equilibrium binding titration on NIH3T3 cells at 4 C, flow cytometry with anti-His antibody
[3] = target: T1, human FGFR1 beta (IIIc)-Fc (R&D Systems); test: flow cytometry, yeast-displayed peptide with soluble FGFR1-Fc
Method: FIG. 15. Non-binding of peptide artifacts to FGFR1-Fc. Yeast cells expressing RTTTS or HTTS peptides on their cell surface were incubated with 10 nM FGFRT-Fc. Cells were stained with fluorescent antibodies for expression (α-c-myc) and binding (α-FGFR1-Fc).
50,000 induced yeast cells were incubated with various concentrations of FGFR1-Fc in phosphate-buffered saline with 1 g/L BSA (PBSA) at room temperature. Cells were incubated in sufficiently large volumes to avoid ligand depletion and long enough times (typically 3 to 24 hours) to reach equilibrium. During the last 30 minutes of incubation, yeast cells were incubated with 1:2500 dilution of chicken anti-c-Myc (Invitrogen) in PBSA. Yeast were pelleted, washed, then incubated with 1:200 dilution of secondary antibodies on ice for 10 min: anti-Human IgG-FITC (Sigma Aldrich) against FGFR1-Fc and anti-chicken-IgY-PE (Santa Cruz Biotechnology) against anti-c-myc. Yeast were washed, pelleted, and resuspended in PBSA immediately before analysis by flow cytometry using EMD Millipore Guava EasyCyte. Flow cytometry data were analyzed using FlowJo (v7.6.1). Binding curves were plotted and Kd values were obtained using GraphPad Prism 6.

Row | inhibition of ERK phosphorylation induced by 1 nM wild type FGF1 in NIH3T3 cells (Western blot against phosphoERK), IC50 [1] | Kd [2] | binding result [3] | Molecule
1 | 1 nM | 10 nM | – | recombinant soluble FGF1 L131R mutant with N-terminal 6x His tag (E. coli, pBAD/His B) (from UniProt P05230 16-155) (ligand)
2 | – | 10 nM | – | recombinant soluble wild-type FGF1 with N-terminal 6x His tag (E. coli, pBAD/His B) (from UniProt P05230 16-155) (ligand)
3 | – | – | no binding (tested: 10 nM) | {Aga2p-HA tag and linker}-RTTTS-{c‑myc tag} (reading uncertain, not shown: Aga2p of S. cerevisiae, yeast display fusion partner (pCT vector); HA tag and vector linker; C-terminal c-myc tag) [yeast-displayed peptide artifact RTTTS]
4 | – | – | no binding (tested: 10 nM) | {Aga2p-HA tag and linker}-HTTS-{c‑myc tag} (reading uncertain, not shown: Aga2p of S. cerevisiae, yeast display fusion partner (pCT vector); HA tag and vector linker; C-terminal c-myc tag) [yeast-displayed peptide artifact HTTS]
